Results reported in the supplement of paper PMC10567573.
± gives the standard deviation.

Assay: protein stability index of a GFP-peptide fusion (GPS, HEK-293T) (PSI 1-6); higher = more stable
[1] = treatment: DMSO, c terminus: a fixed tail appended
[2] = treatment: MLN4924 1 uM, 8 h, c terminus: a fixed tail appended
[3] = treatment: DMSO, c terminus: native
[4] = treatment: MLN4924 1 uM, 8 h, c terminus: native
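Further: 24-mer peptide tiles fused after GFP, lentivirally expressed, FACS-sorted into six equal bins by GFP/DsRed ratio, decoded by Illumina sequencing, PSI is the read-weighted mean bin number.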

Row | Sequence | protein stability index [1] | protein stability index [2] | protein stability index [3] | protein stability index [4]
1 | KYRNPSLKLMVNVCGHTLCESCVD [MNAT1] | 2.53 ± 0.34 | 2.83 ± 0.31 | – | –
2 | YLDETCTCFVRDGKTYCKRDYVRL [ISL2] | 2.68 ± 0.084 | 2.95 ± 0.3 | – | –
3 | PQESAILQLFHQDGTFSPVTLALF [CLCN6] | 2.45 ± 0.46 | 2.42 ± 0.32 | – | –
4 | CGQPCSQKSGLIRHQKIHSGEKPY [ZNF649] | 3.02 ± 0.5 | 3.21 ± 0.28 | – | –
5 | QIENLNIQVEDIRIRAILSTYRKR [LOXL2] | 2.67 ± 0.28 | 2.85 ± 0.37 | – | –
6 | GRSFREEQCVSFNSHVYNGRTHQW [ADAMTSL2] | 3.05 ± 0.56 | 3.15 ± 0.87 | – | –
7 | RLWRLFQTLDVNRDGGLCVNDLAV [SLC25A25] | 2.56 ± 0.2 | 2.49 ± 0.17 | – | –
8 | APEIDPSSDGSNFGWETKIKAWMD [KMT2E] | 4.21 ± 0.41 | 4.36 ± 0.25 | – | –
9 | WQMIEQIQFIKLFGMAKIDNLLQE [HNF4A] | 2.9 ± 0.7 | 2.33 ± 0.33 | – | –
10 | RDNAELENLIRERSQQQEPLLCPS [KRT33B] | 4.98 ± 0.23 | 4.87 ± 0.21 | – | –
11 | KHHNLEGLRKRIATLFFHYIKTPL [IQUB] | 3.05 ± 0.27 | 2.66 ± 0.59 | – | –
12 | ENVDEASAAPGHPQDGSYPRQADH [KCNA1] | 5.55 ± 0.25 | 5.47 ± 0.26 | – | –
13 | HKVLELTAENERLQKKVEQLSREL [CEBPB] | 5.76 ± 0.23 | 5.811 ± 0.011 | – | –
14 | PRKVSTCTDHELENHSMYCVQCKM [TRIM9] | 4.53 ± 0.27 | 4.74 ± 0.33 | – | –
15 | NAIPGRTDIELEIYGMEGIPEKDM [ZNF207] | 4.23 ± 0.35 | 4.37 ± 0.29 | – | –
16 | HECGTKYPVEWAKFCCECGIRRMI [ZC2HC1A] | 2.48 ± 0.3 | 2.71 ± 0.46 | – | –
17 | FGRYLEHLEVKFMNPYNAVLTKKF [FBXO39] | 2.24 ± 0.45 | 2.04 ± 0.16 | – | –
18 | PFKFHMLHSGLVHGLAFWFDVAFI [CARM1] | 2.75 ± 0.15 | 2.97 ± 0.2 | – | –
19 | LPAVKVFLDWLRTNPDLIIVCAQS [SMG5] | 2.27 ± 0.47 | 2.41 ± 0.45 | – | –
20 | HSGTKRDPKEDVFQQNHLFWLQNS [PHTF1] | 3.42 ± 0.25 | 3.33 ± 0.26 | – | –
21 | GIVEAMVVCRQLGLGFASNAFQET [LOXL2] | – | 2.393 ± 0.002 | – | –
22 | ELFKELSINVMKQLIGSSNLFVMQ [GMCL1] | – | 3.95 ± 0.43 | – | –
23 | KVTGVEYHNAGTQTVPKRIPERLS [IQUB] | 4.22 ± 0.22 | 4.23 ± 0.32 | – | –

Row | Sequence | protein stability index [1] | protein stability index [2] | protein stability index [3] | protein stability index [4]
24 | LESTLAETEARYSSQLAQMQCLIS [KRT36] | 3.08 ± 0.17 | 3.18 ± 0.32 | – | –
25 | AATRGGSHLQAAAQTPPRPGPPSA [SCNN1D] | 4.93 ± 0.21 | 4.84 ± 0.1 | – | –
26 | FLLAFGLMIIVCIDQWKNKIWPEI [RETREG3] | 2.94 ± 0.4 | 3.09 ± 0.35 | – | –
27 | GRFEQLGKTAASWCLHVNNWLQVS [FSD1] | 2.29 ± 0.37 | 1.96 ± 0.2 | – | –
28 | YSLLYLEHKGWYSWVLSMLYGFLL [CLPTM1] | 2.18 ± 0.37 | 2.26 ± 0.49 | – | –
29 | ILLNGVSGWIFFYVPSSESFIIYL [P2RY14] | 2.74 ± 0.27 | 2.84 ± 0.52 | – | –
30 | QALGTHRPVNKLAELQCEVAALRE [RASAL3] | 3.81 ± 0.38 | 3.75 ± 0.41 | – | –
31 | KQIYNLIHLDPRTREGFTLLHLAV [FEM1B] | 2.66 ± 0.52 | 2.67 ± 0.61 | – | –
32 | DSEEELAAFCPQLDDSTVARELAI [RETREG3] | 5.12 ± 0.28 | 5.24 ± 0.19 | – | –
33 | EYMETGSLEKLLASEPLPWDLRFR [RIPK4] | 2.76 ± 0.3 | 3.27 ± 0.6 | – | –
34 | FLMLAVSLTVPLLGAMMLLESPID [APMAP] | 3.52 ± 0.26 | 3.64 ± 0.37 | – | –
35 | SICMRMEILGCPLPDPNNYYHRRN [CPXM2] | 2.68 ± 0.27 | 2.46 ± 0.24 | – | –
36 | RLLSHDQVAMPYQWEYPYLLSILP [JAGN1] | 2.15 ± 0.19 | 1.99 ± 0.16 | – | –
37 | EQVNFCESSNDFGPYEGGGPVAGL [ZBTB22] | 4.3 ± 0.16 | 4.32 ± 0.25 | – | –
38 | PLFYPGIRAGRKNAAPLTIRPPTD [TRIM39] | 3.56 ± 0.25 | 3.58 ± 0.15 | – | –
39 | WEKKPFSEDVNWGYEKRNLARVPK [CHGB] | 3.38 ± 0.3 | 3.87 ± 0.17 | – | –
40 | GAREEDLDAVEAQIGCKLPDDYRC [FBXO3] | 5.25 ± 0.073 | 5.15 ± 0.12 | – | –
41 | KARVLRSKSLCHDEIENLLDSDHR [CDC25B] | 4.4 ± 0.13 | 4.62 ± 0.15 | – | –
42 | AQRLRPQDEPRQGCQPEDRRRRII [KCNG1] | 4.92 ± 0.23 | 4.9 ± 0.1 | – | –
43 | ELEKSGHGQAGQRQDPRPHGPQLP [ZBED2] | 5.01 ± 0.25 | 5.28 ± 0.055 | – | –
44 | LRRKSPASGQGPMCNVKAPLGSPS [ADAMTS4] | 3.85 ± 0.2 | 3.86 ± 0.46 | – | –
45 | ALATLRVLRGLARPEHPPPAPTGQ [TMEM175] | 3.09 ± 0.22 | 3.09 ± 0.39 | – | –
46 | DDFRTKYQTEQSLRQLVESDINSL [KRT33B] | 4.6 ± 0.2 | 4.39 ± 0.12 | – | –

Row | Sequence | protein stability index [1] | protein stability index [2] | protein stability index [3] | protein stability index [4]
47 | NYMVQTEDQYIFIHDALLEAVTCG [PTPRD] | 2.25 ± 0.35 | 2.13 ± 0.37 | – | –
48 | GMPPAGTGMPMMPQQPVMFAQPMM [SNAP91] | 3.03 ± 0.17 | 3.2 ± 0.34 | – | –
49 | ALNQEFLATRSNEKQELQELNDRF [PRPH] | 4.24 ± 0.19 | 4.38 ± 0.22 | – | –
50 | RHTSPVFSPANPESSMEDCLAHLG [BCL2L13] | 4.24 ± 0.069 | 4.31 ± 0.29 | – | –
51 | SKAQELGGAGREDPGLWSRLCRLA [ZSWIM9] | 2.96 ± 0.13 | 3.38 ± 0.33 | – | –
52 | KSVRLARELESREAELRRRDTFYK [CHCHD6] | 4.23 ± 0.26 | 4.36 ± 0.29 | – | –
53 | EEDCAWSQELPPPDPGPSPEASHL [ZNF263] | 5.44 ± 0.25 | 5.58 ± 0.25 | – | –
54 | LIVHIALPSWADICTNLCEALQNF [M1AP] | 3.02 ± 0.56 | 3.09 ± 0.24 | – | –
55 | DRRKKIARMGFNASSMLRKSQLGF [DCAF4] | 2.67 ± 0.34 | 2.84 ± 0.13 | – | –
56 | LALDREPPPHLLPEKHQVPEKLIW [WDR88] | 3.31 ± 0.32 | 3.17 ± 0.3 | – | –
57 | YLAYINAKSRAEAALEEESRQRQS [SMARCE1] | 3.93 ± 0.33 | 3.75 ± 0.33 | – | –
58 | NKKGFWSYGPVILVVLVVAVVASS [TOR1AIP2] | 1.78 ± 0.42 | 1.83 ± 0.042 | – | –
59 | GREKPGPLDFEAYSAAALQEAMKR [FCHO1] | 4.21 ± 0.27 | 4.26 ± 0.18 | – | –
60 | KQRPTKLKSLIRLVKHWYQNCKKK [OAS1] | 3.44 ± 0.45 | 3.08 ± 0.42 | – | –
61 | TCSECGKGFIQKGNLNIHQRTHTG [ZNF649] | 3.24 ± 0.2 | 3.26 ± 0.25 | – | –
62 | GDQDPLSKIPFKILSGHEHAVSTC [WDR88] | 3.31 ± 0.23 | 3.78 ± 0.16 | – | –
63 | QLQPTSIEKEVFPIMAKEGQLYAM [GMPPB] | 3.1 ± 0.27 | 2.96 ± 0.5 | – | –
64 | EALAKQVASEMRFVQDLVRALEQE [DAPK3] | 2.95 ± 0.25 | 3.09 ± 0.54 | – | –
65 | VLSREQSRRSYDDQLRSGSPPKSP [DNAJC4] | 5.29 ± 0.26 | 5.45 ± 0.12 | – | –
66 | QQLYRHGKAYRFLFGFSAVSIMYL [JAGN1] | 2.82 ± 0.2 | 3.28 ± 0.93 | – | –
67 | GLSGGALSPLRAASDPLLSSVSPA [TFE3] | 3.91 ± 0.32 | 3.91 ± 0.099 | – | –
68 | GFWEEERPFWEEEKTFWKEEKSFW [CCDC70] | 2.85 ± 0.35 | 3.274 ± 0.027 | – | –
69 | YMYYFQYLSKTYCVDATRETNRLG [KMT5A] | 2.67 ± 0.47 | 2.81 ± 0.66 | – | –

Row | Sequence | protein stability index [1] | protein stability index [2] | protein stability index [3] | protein stability index [4]
70 | VAEETPDGAPALCPSPEALSPEPP [PRKX] | 5.48 ± 0.21 | 5.41 ± 0.31 | – | –
71 | EGDVLDTLEALGYKGPLLEEQALT [FAM98B] | 4.36 ± 0.34 | 4.35 ± 0.12 | – | –
72 | QTNKPALRAVRQRSEFTLMAKRIG [STX5] | 3.15 ± 0.29 | 3.35 ± 0.25 | – | –
73 | PDIRTKDIEDVFYKYGAIRDIDLK [SRSF1] | 3.59 ± 0.12 | 3.62 ± 0.24 | – | –
74 | LSPKKTWEGFIGGFFSTVVFGFIA [CDS1] | 2.28 ± 0.47 | 2.15 ± 0.63 | – | –
75 | QITSRVVSAATQLRHFFLVEDLVD [RTN2] | 2.83 ± 0.24 | 3 ± 0.27 | – | –
76 | KDLSNTFAKLEKLTILAKRKSLFD [STX5] | 2.45 ± 0.16 | 2.51 ± 0.32 | – | –
77 | SWEVVTSMGTQRCDAGVCVLREK [KLHL12] | – | – | 2.89 ± 0.46 | 3.17 ± 0.41
78 | QLISRMEYVHSKNLIYRDVKPENF [CSNK1G3] | 2.37 ± 0.24 | 2.42 ± 0.17 | – | –
79 | EFGALMSNYSLPPPLPTYHVLLEG [TRIM29] | 2.7 ± 0.98 | 2.15 ± 0.33 | – | –
80 | MNPYKIDIGAVYSHRPNQHNTVKL [PRIM1] | 2.79 ± 0.06 | 2.43 ± 0.37 | – | –
81 | KFGRTCLHAAAAGGNVECIKLLQS [ANKRD44] | 2.44 ± 0.45 | 2.55 ± 0.12 | – | –
82 | MRLNSTGEVPVLIHGENIICEATQ [GDAP1] | 3.69 ± 0.17 | 3.8 ± 0.45 | – | –
83 | YDKNIIHKTAGKRYVYRFVCDLQS [ETS1] | 2.11 ± 0.17 | 2.14 ± 0.17 | – | –
84 | APPPLKDDPEGDRDGCVITKVLL [ZBED3] | – | – | 5.4 ± 0.25 | 5.43 ± 0.4
85 | GTADGRVVKLENGEIETIARFGSG [APMAP] | 4.66 ± 0.25 | 4.64 ± 0.1 | – | –
86 | RAVQGPEETVTQDCLQLIADSETP [TNFSF13B] | 5.38 ± 0.2 | 5.38 ± 0.15 | – | –
87 | QNGEEGTSTPEDKESGQEGVDSMA [SMARCE1] | 5.44 ± 0.17 | 5.65 ± 0.29 | – | –
88 | SPSFQLKAAALPPFPLGASAQNGL [PLAGL1] | 3.41 ± 0.32 | 3.52 ± 0.4 | – | –
89 | QGDKAIREQGPREQEPELSFLKQK [PBXIP1] | 5.44 ± 0.33 | 5.42 ± 0.16 | – | –
